Measured values: PMC10703350, “Fibril structures of TFG protein mutants validate the identification of TFG as a disease-related amyloid protein by the IMPAcT method” (PNAS Nexus, 2023)
Residue numbers refer to the chain shown, from its start. Names and notes keep the numbering of the source.

B1: TFG low-complexity domain (residues 237-327) with the G269V mutation conjugated to mCherry (domain or fragment, human, UniProt Q92734 237-327, looked up)
chain: GQIEGQMYQQYQQQAGYGAQQPQAPPQQPQQYVIQYSASYSQQTGPQQPQQFQGYGQQPTSQAPAPAFSGQPQQLPAQPPQQYQASNYPAQ
notes: TRK-fused gene protein (TFG), human, low-complexity domain residues 237-327 with the disease-related (CMT2) mutation G269V; PDB 8TEQ holds only the ordered fibril core (262-290 and 265-290); also called mC-TFG-LCD-G269V; G269V mutant; source: E. coli BL21(DE3) gold, purified (Ni-NTA, size exclusion chromatography), dialyzed into PBS; not shown: mCherry, N-terminal, kept
B2: TFG low-complexity domain (residues 237-327) with the P285L mutation conjugated to mCherry (domain or fragment, human, UniProt Q92734 237-327, looked up)
chain: B1 chain with V33G, P49L
notes: TRK-fused gene protein (TFG), human, low-complexity domain residues 237-327 with the disease-related (HMSN-P) mutation P285L; PDB 8TER holds only the ordered fibril core (265-299); also called mC-TFG-LCD-P285L; P285L mutant; source: E. coli BL21(DE3) gold, purified (Ni-NTA, size exclusion chromatography), dialyzed into PBS; not shown: mCherry, N-terminal, kept

Biological target: the molecule itself
Assay: cryo-EM structure; amyloid fibrils of the purified construct (formed at 50 μM in PBS, 37°C, shaking); helical reconstruction in RELION, de novo model of the fibril core

| Protein | binding result |
| --- | --- |
| B1 | binds |
| B2 | binds |
